Earlier results on 1 substance are cited in PMC6679586.

pKd: −log10 of the molar value.

The target in this series is Activin A mature domain mature domain (Homo sapiens) (UniProt P08476).

“Activin A prodomain prodomain (from UniProt P08476)”: the pKd was 8.30.

As a reminder, the pKd is −log10 of the Kd, conventionally taken in molar units.
